The series can be described thus: yeast display, Sf9 membrane polyspecificity reagent, FACS + sequencing; frameworks hold sequencing errors. The method, boiled down: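 Sorting gates, low and high (top ~1%), were placed on anti-HA fluorescence to track expression and on streptavidin fluorescence to track reagent binding. A clone's polyreactivity label is taken from the gate it came out of. The reagent was 10% biotinylated, detergent-solubilized Sf9 membrane, applied for 1 hour at 4 °C to galactose-induced yeast display cells.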
Take “QVQLVESGGGLVQAGGSLRLSCDASGSIFYRYAMGWYRQAPGKERELVASISSGVSTNYADSVKGRFTISRDNAKNTVYLQMNSLKPEDTAVYYCAAYYRGWSSSYWYPAYNYWGHGTQVTVSS”: the “polyreactivity (PSR sort gate)” value is recorded as “low polyreactivity”. Then “QVQLVESGGGLVQAGGSLRLSCAASGSNFENYAMGWYRQAPGKERELVAAISSNGGSTYYADSVKGRFTLSRDKAKNTVYLQKNSLKPEDTAVYYCNKGRYYRQIYDYWGQGTQVTVSS”, with “high polyreactivity”; and “QVQLVESGGGLVQAGGSLRLSCAASGRIFPQYAMGWYRQAPGKERELVAAISVSGTRTYYADSVKGRFTISRDNAKNTVYLQMNSLKPEDTAVYYCNTLGKYDGFYYWGQGTQVTVSS”, with “high polyreactivity”. Then “QVQLVESGGGLVQAGGSLRLSCSASGIIFGWYAMGWYRKAPGKEREFVATISWSGASTYYADSVKGRFTISRDNAKNTVYLQLNSLKPEDTAVYYCAAVGRRQAFGRRDYWGQGKQVTVSS”, with “high polyreactivity”; and “QVQLVESGGGLVQAGGSLRLSSAASGSTFLRYAMGWYRQAPGKERELVAAISYSGGSTYYADSVKGRFTISRDNAKNTVYLQMNSLIPQDTAVNYCNAGVFANDNGGRRDHFTWEYEYWGQGTQVTVSS”, with “low polyreactivity”. With “QVQLVESGGGLVQAGGSLRLSCAASGSIFTQNAMGWYRQAPGKERELVAGISDGDSTNYADSVKGRFTISRDNAKNTVYLQMNSLKPEDTAVYYCNAQGTTETSGGGFFRGMDYWGQGTQVTVSS”, the “polyreactivity (PSR sort gate)” value is given as “low polyreactivity”. Then “QVHLVESGGGLVQAGGSLRLSCAASGRTFDRNAMGWYRQAPGKERELVAAISRNGGSTYYADSVKGRFTISRDNAKNTVYLQMNSLKPEDTAVYYCAAPRSVYDVARGDYWGQGTQVTVSS”, with “high polyreactivity”; and “QVQLVESGGGLVQAGGSLRLSCAASGNIFAINAMGWYRQAPGKERELVAAITWSSARTYYADSVKGRFTISRDNAKNTVYLQMNSLKPEDTAVYYCNAPALFEYDYWGQGTQVTVSS”, with “high polyreactivity”.

In the case of “QVQLVESGGGLVQAGGSLRLSCAASGGTFPYYAMGWYRQAPGKERELVADISGTDGSTYYADSVKGRFTISRDNAKNTVYLQMNSLKPEDTAVYYCAAEEVSWNGTGDYWGQGTQVTVSS”, the “polyreactivity (PSR sort gate)” value was “high polyreactivity”.

With “QVQLVESGGALVQAGGSLRLSCAASRSIFWINAMGGYRQAPGTERELVADNDVSGGSTYYADTVKGRFTISRDNAKNTVYLKMNSLKPEDTEVYYCAADDYWAYLYYKTSEYDYWGQGTQVTVSS”, the “polyreactivity (PSR sort gate)” value was “low polyreactivity”. For “QVQLVESGGGLVQAGGSLRLSCAASGITFDHYAMGWYRQAPGKEREFVAAIDDIGGDTYYADSVKGRFTISRDNAKNTVYLQMNSLKPEDTAVYYCAADYGYYSRFYYWGQGTQVTVSS”, the “polyreactivity (PSR sort gate)” value is listed as “low polyreactivity”. In the case of “QVQLVESGGGLVQAGGSLRLSCAASGSIFFFNAMGWYRQAPGKERELVAAISESGTSTYYADSVKGRFTISRDNAKNTVFLQMNSLKPEDTAVFYCKVVFRYAYGVYYTPEFYYWGQGTQVTVSS” it was “low polyreactivity”; in that of “QVHLVESGGGLVQAGGSLRLSCAASGLTFAWYAMGWYSQAPGKERELVAVISNGGSTNDADSVKGRFTISRDNAKNTVYLQMNSLKPEDTAVYYCAAGWVWSGNDYYYWGQGTQVTVSS”, “low polyreactivity”.

For “QVQLVESGGGLVQAGGSLRLSCAASGRIIVDNTMGWYRQAPGQEREFVAVITSGGSTNYADSVKGRYTISRDNAKNTVYLQMNCLNPEDTAVYYCATEPGGYRFDDRPFQFGYWGQGTQVTVSS”, the “polyreactivity (PSR sort gate)” value is reported as “low polyreactivity”. For the sequence “QVQLVESGGGLVQAGGSLRLSCAASGRIFGRYAMGWYRQAPGKERELVASIRSRGGSTYYADSVKGRFTISRDNAKNTVYLQMNSLIPEDTAVYYCAKTVTSGYYYAGRYDYWGQGTQVTVSS”, the “polyreactivity (PSR sort gate)” value was “high polyreactivity”. Then “QVQLVETGGGLVQARGSLRLSSAASGIIFYRYAMGWYRQAPGKETDFVAAISWSGGSTTYADSVKGRFTISRDNAKNTVYLQMNSLKPVDTAVYYCNAERKYWSLWGPAYDYWGQGTQVTVSS”, with “high polyreactivity”. Then “QDQLVESGGGLVQAGGSLRLSCAASGGIFPDNAMGWSRKAPGKERELVATISWSGGSTYADSVKWRFTISRDNAKNTVYLQMNRLKPEDTAVYYCAAGSAYLWGQGTQVSVSS”, with “low polyreactivity”; and “QVQLVESGGGLVQAGGSLRLSCAASGRTFVYNAMGWYRQAPGKERELVATIRSSGGSTYYADSVKGRFTISRDNAKNTVYLQMNSLKPEDTAVYYCAARWRPYGKFYYWGQGTQVTVSS”, with “high polyreactivity”; and “QVQLVESGGGLVQAGGSLRLSCAASGRIFPWNTMGWYRQAPGKERELVAGITSCGSTNYADSVKGRFTISRDNAKNTVYLQMNSLKPEDTAVYSCAARGYYWYISGVYEYEYWGQGTQVTVSS”, with “low polyreactivity”. Then “QVQLVESGGGLVQAGGSLRLSCAASGLTFDTYAMGWYRQAPGKERELVAAISIGGRTNYADSVKGRFTISRDNAKNTVYLQMNSLKPEDTAVYYCAVGAVVPGRRRRTYYYWGQGTQVTVSS”, with “high polyreactivity”; and “QVQQQESGGGLVKAGGSLRLSCAASGNNSPRDAMGWYRQAPGEERDLVASNAYSAITYYADGVKGRYTISRDNAKNTVYLQMNSLKPEDTEVYYCAVYQFTYPVFPAYWGQGTQVTVSS”, with “low polyreactivity”. For “QVQLVESGGGLVQAGGSLRLSCAASGIIFRKYAMGRYRQAPGKERELVAAISSSGGSTYYADSVKGRFTISRDNAKNTVYLQMNSLKPEDTAVYYCAAERQVTNKIFNYWGQGTQVTVSS”, the “polyreactivity (PSR sort gate)” value is “high polyreactivity”. With “QVQLVESGGGLVQAGGSLRLSCAASGFTFDYNAMGWYRQAPGKEREFVAAISSNGGSTYYADSVKGRFTISRDNAKNTVYFQMNSLKPEDTAVYYCAARYRSFVYWYGYWGQGTQVTVSS”, the “polyreactivity (PSR sort gate)” value is “high polyreactivity”. In the case of “QVQLVDSGGGLVQAGGSLRLSCAASGSNYVDYDMGWYRQAPGKERDLVAALTYSGARTYYADSVKGRFTISRDNAENTVYLQMNSLKPEDTAVYYCNAAGYPYPYRGDYDYWGQGTQVTVSS” it was “low polyreactivity”; in that of “QVQLVESGGGFVQAGGSLRLSCAASGRIFPGYAKGWYRQAPGKERELVAAISASGGSTYYADSVKGRFTISRDNAKNTVYLQMNSLKPEDTAVYYCNAVYRRYEYWGQGTQVTVSS”, “high polyreactivity”.

With “QVQLVESGGGLVQAGGSLRLSCAASGRIFYYYAMGWYRQAPGKERELVAGIDSGDSTNYADSVKGRFTISRDNAKNTVYLQMNSLKPEDTAVYYCAALHYGGYFSYYPYYYWGQGTQVTVSS”, the “polyreactivity (PSR sort gate)” value is on record as “low polyreactivity”. In the case of “QVQLVESGGGLVQAGGSLRLSCAASGIFDDNAMGWYRQAPGKEREFVAAITISDGTTYYADSVKGRFTISRDNAKNTVDLQMNSLKPEDTAVYYCAADATYFFVYPSVDWQPDIMGYWGQGTQVTVSS” it was “low polyreactivity”; in that of “QVQLVESGGGLVQAGGSLRLSCAASGSTFDIYAMGWYRQAPGNERELVAAISVSGGSTYYADSVKGRFTIARDNAKNTVDLQMNSLKPEDTAVYYCAAEAYTRFYQQFDYWGQGTQVTVSS”, “high polyreactivity”; in that of “QVQLVESGGGLVQAGGSLRLSCAASGSIFRKYALGWYRQAPGKERELVAAIRSSGGSTYYADSVKGRFTISRDNAKNTVYLQMNSLKPEDTAVYYCAARYYRPSRYDYWGQGTQVTVSS”, “high polyreactivity”.

In the case of “QDQLVDSGGGLVQAGGSLRLSCAASGIIFYRYAMGWYRQAPGKERELVATITASGGRTYYADSVKGRFTISRDNAKNTVYLQMNSLKPEDTAVYYCAAVSSYRLYSDYGYWRQGTQVTVSS”, the “polyreactivity (PSR sort gate)” value is listed as “high polyreactivity”.

The values are drawn from the nanobody polyreactivity screen of Harvey et al. (2022).
